The results in this text go back to the supplement of paper PMC10724198.

In the data set the test system is Saccharomyces cerevisiae. In words: protein stability index of tFT-peptide fusion (C-terminal peptide) (PSI (0-1 scale)); higher = more stable (slower turnover). The following applies: temperature: 30 C. On the procedure:
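MPS profiling in S. cerevisiae of the yeast C-terminome library: the last 12 aa of each annotated ORF are fused to the C-terminus of a sfGFP-mCherry timer, after a GGGS linker. Cells are FACS-sorted into 8 mCherry/sfGFP bins and deep-sequenced. PSI runs from 0 (unstable) to 1 (stable); wild type and das1Δ backgrounds, two technical replicates each.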

The mark [1] stands for this setting: genetic background: das1 deletion.

± gives the standard deviation of the averaged measurements.

Regarding AWVPPTEDDSDE [DPH5 C-terminal 12 aa], the protein stability index runs as follows: under setting [1], 0.698 ± 0.018; (genetic background: wild type) 0.665 ± 0.0093.

With AYLQYYSESPEN [DUG1 C-terminal 12 aa], the protein stability index reads like this: under setting [1], 0.707 ± 0.0053; (genetic background: wild type) 0.724 ± 0.051.

“CFFLRKENGKDE [YLR120W-A C-terminal 12 aa]”: the protein stability index under setting [1] stood at 0.709 ± 0.041 and the protein stability index (genetic background: wild type) was 0.687 ± 0.017.

Turning to “CHLLFGTHKKTL [YBL071C-B C-terminal 12 aa]”, the protein stability index is 0.7233 ± 0.002 under setting [1] and 0.6921 ± 0.003 (genetic background: wild type).

CKQWEISNMLKK [CSI1 C-terminal 12 aa]: the protein stability index reads like this: under setting [1], 0.738 ± 0.023; (genetic background: wild type) 0.664 ± 0.04.

On to CKYPTKDIPIFF [RAD17 C-terminal 12 aa], for which the protein stability index worked out at 0.727 ± 0.013 under setting [1] and 0.734 ± 0.013 (genetic background: wild type).

As for CLSLDFVVPRPK [SHR5 C-terminal 12 aa], the protein stability index is 0.74 ± 0.016 under setting [1] and 0.697 ± 0.048 (genetic background: wild type).

For the sequence “CMRPANQEIYPL [YLR157W-D C-terminal 12 aa]”, the protein stability index is, setting by setting: under setting [1], 0.704 ± 0.02; (genetic background: wild type) 0.681 ± 0.017.

CSGAAGKIYVCD [CDC40 C-terminal 12 aa] returned a protein stability index under setting [1] of 0.6678 ± 0.005 and a protein stability index (genetic background: wild type) of 0.723 ± 0.01.

Turning to CTSCGYKFRTNN [RPA12 C-terminal 12 aa], the protein stability index was found to be 0.7397 ± 0.0049 under setting [1] and 0.2522 ± 0.002 (genetic background: wild type).

Consider CTSLLKGERKKE [RRT8 C-terminal 12 aa], for which the protein stability index by setting is: under setting [1], 0.6656 ± 0.00077; (genetic background: wild type) 0.685 ± 0.012.

In the case of DAFEKAIEAVYA [ARG8 C-terminal 12 aa], the protein stability index turned out to be 0.546 ± 0.014 under setting [1] and 0.558 ± 0.012 (genetic background: wild type).

As for DAFTDPRQYHLT [BUD19 C-terminal 12 aa], the protein stability index stood at 0.717 ± 0.0052 under setting [1] and 0.69 ± 0.0082 (genetic background: wild type).

Regarding DAHIYNKRSKPD [PHO80 C-terminal 12 aa], the protein stability index under setting [1] was 0.646 ± 0.012 and the protein stability index (genetic background: wild type) stood at 0.662 ± 0.04.

On to DDAKDSNNSSLR [WSC2 C-terminal 12 aa], for which the protein stability index by setting is: under setting [1], 0.682 ± 0.011; (genetic background: wild type) 0.724 ± 0.0081.

DDAVNCNTSNCL [ZRC1 C-terminal 12 aa]: the protein stability index by setting is: under setting [1], 0.7026 ± 0.002; (genetic background: wild type) 0.698 ± 0.017.

For the sequence DDEEATAMFKLE [IES1 C-terminal 12 aa], the protein stability index by setting is: under setting [1], 0.715 ± 0.0089; (genetic background: wild type) 0.6754 ± 0.0028.

DDNEPDEEANRA [RXT2 C-terminal 12 aa] came in with a protein stability index under setting [1] of 0.672 ± 0.012 and a protein stability index (genetic background: wild type) of 0.6656 ± 0.0043.

As to DDTLERAGRIKN [FAD1 C-terminal 12 aa], the protein stability index came out at 0.69 ± 0.023 under setting [1] and 0.709 ± 0.019 (genetic background: wild type).

As to DECFCLARHEND [TDP1 C-terminal 12 aa], the protein stability index by setting is: under setting [1], 0.7114 ± 0.0022; (genetic background: wild type) 0.708 ± 0.023.

Take DEKTLDSIGNSL [VCX1 C-terminal 12 aa]: the protein stability index by setting is: under setting [1], 0.701 ± 0.0096; (genetic background: wild type) 0.696 ± 0.013.

In turn, DENDKVIAIKVV [VPS25 C-terminal 12 aa] yielded a protein stability index under setting [1] of 0.5736 ± 0.00061 and a protein stability index (genetic background: wild type) of 0.525 ± 0.011.

Regarding DGFSVPITTFQT [CDC15 C-terminal 12 aa], the protein stability index runs as follows: under setting [1], 0.712 ± 0.011; (genetic background: wild type) 0.709 ± 0.045.

The sequence DHLHNLAQYWRT [VPS34 C-terminal 12 aa] returned a protein stability index under setting [1] of 0.697 ± 0.015 and a protein stability index (genetic background: wild type) of 0.703 ± 0.038.

For the sequence DIIKQGVNDIIV [ARD1 C-terminal 12 aa], the protein stability index reads like this: under setting [1], 0.672 ± 0.015; (genetic background: wild type) 0.717 ± 0.033.

Regarding DIISAFEEYKNA [SEC3 C-terminal 12 aa], the protein stability index came out at 0.714 ± 0.036 under setting [1] and 0.685 ± 0.026 (genetic background: wild type).

For DLEEAANKAQPQ [YLR257W C-terminal 12 aa], the protein stability index runs as follows: under setting [1], 0.6993 ± 0.0011; (genetic background: wild type) 0.7125 ± 0.0015.

DLESLFKEKLSI [ALA1 C-terminal 12 aa]: the protein stability index runs as follows: under setting [1], 0.7111 ± 0.0015; (genetic background: wild type) 0.705 ± 0.02.

For DLEVKLKKHKKN [TRZ1 C-terminal 12 aa], the protein stability index is, setting by setting: under setting [1], 0.733 ± 0.029; (genetic background: wild type) 0.676 ± 0.05.

Take DLVKAAAGSDNE [RRP15 C-terminal 12 aa]: the protein stability index was found to be 0.6823 ± 0.0059 under setting [1] and 0.675 ± 0.018 (genetic background: wild type).

Consider DLVKASSTLNVS [SDL1 C-terminal 12 aa], for which the protein stability index is 0.682 ± 0.0043 under setting [1] and 0.672 ± 0.0084 (genetic background: wild type).

DMGKNLLQNKKF [ERG2 C-terminal 12 aa] yielded a protein stability index under setting [1] of 0.695 ± 0.039 and a protein stability index (genetic background: wild type) of 0.695 ± 0.012.

As to DNDDDAGAVPTS [CDC13 C-terminal 12 aa], the protein stability index is, setting by setting: under setting [1], 0.7113 ± 0.0012; (genetic background: wild type) 0.684 ± 0.011.

On to DPKLYFDATILS [TDA3 C-terminal 12 aa], for which the protein stability index reads like this: under setting [1], 0.703 ± 0.025; (genetic background: wild type) 0.691 ± 0.013.

As to DSQDMERMDSDS [YLR076C C-terminal 12 aa], the protein stability index runs as follows: under setting [1], 0.691 ± 0.035; (genetic background: wild type) 0.745 ± 0.11.

For DSQHKHDYSHSG [DCK1 C-terminal 12 aa], the protein stability index reads like this: under setting [1], 0.6787 ± 0.0061; (genetic background: wild type) 0.715 ± 0.035.

As to DTFPRWEGIKSK [PAD1 C-terminal 12 aa], the protein stability index runs as follows: under setting [1], 0.70511 ± 2.5e-05; (genetic background: wild type) 0.6968 ± 0.0043.

For DVEDVERVSKKI [CDC34 C-terminal 12 aa], the protein stability index under setting [1] is 0.704 ± 0.057 and the protein stability index (genetic background: wild type) worked out at 0.67 ± 0.032.

In turn, DWESNQAKWIYE [YNK1 C-terminal 12 aa] gave a protein stability index under setting [1] of 0.752 ± 0.034 and a protein stability index (genetic background: wild type) of 0.718 ± 0.029.

As to DYKTKRNPSVLH [ISU2 C-terminal 12 aa], the protein stability index runs as follows: under setting [1], 0.6878 ± 0.0024; (genetic background: wild type) 0.7106 ± 0.0056.

For DYSRRVLRLMNE [WSC4 C-terminal 12 aa], the protein stability index runs as follows: under setting [1], 0.7058 ± 0.0028; (genetic background: wild type) 0.5834 ± 0.0049.

DYWRKRGISSVY [ECM38 C-terminal 12 aa] displayed a protein stability index under setting [1] of 0.68703 ± 0.00044 and a protein stability index (genetic background: wild type) of 0.72719 ± 0.0003.

With DYYFRTGVKRLQ [ARP10 C-terminal 12 aa], the protein stability index by setting is: under setting [1], 0.705 ± 0.028; (genetic background: wild type) 0.732 ± 0.044.

Take EAETPGIIDKHQ [SIS2 C-terminal 12 aa]: the protein stability index turned out to be 0.689 ± 0.023 under setting [1] and 0.677 ± 0.044 (genetic background: wild type).

Turning to “EALPPCLQIFRP [YDR354C-A C-terminal 12 aa]”, the protein stability index was found to be 0.701 ± 0.0091 under setting [1] and 0.6739 ± 0.0039 (genetic background: wild type).

For EAQLSCSEESLA [COS1 C-terminal 12 aa], the protein stability index by setting is: under setting [1], 0.69057 ± 5e-06; (genetic background: wild type) 0.683 ± 0.024.

In the case of EASEPFKTFKNT [MMS22 C-terminal 12 aa], the protein stability index under setting [1] came out at 0.724 ± 0.0073 and the protein stability index (genetic background: wild type) amounted to 0.696 ± 0.0087.

In the case of EDDFGPKPKFFI [SWE1 C-terminal 12 aa], the protein stability index is, setting by setting: under setting [1], 0.71 ± 0.011; (genetic background: wild type) 0.683 ± 0.039.

For the sequence EEEEEEGKEGDA [SCT1 C-terminal 12 aa], the protein stability index under setting [1] turned out to be 0.684 ± 0.012 and the protein stability index (genetic background: wild type) came to 0.697 ± 0.0061.

Turning to EEKKKQEEGHSN [MNN4 C-terminal 12 aa], the protein stability index was 0.699 ± 0.0072 under setting [1] and 0.663 ± 0.03 (genetic background: wild type).
